Measured values from US20150110781A1.
Residue numbers refer to the chain shown, from its start.

B1: Mouse CT.RV 7G11A3 2G11 (antibody, V domains shown)
VH: EVQLVESGGGLVKPGGSLILSCAASGFTFSGFAMSWVRQTPEKRLEWVATISSGGTYTYSPDSVMGRFTISRDNAKNTLYLQMSSLRSEDTAMYYCARRLRRNYYSMDYWGQGTSVTVSS
VL: DVVLTQAPLSLPVNIGDQASISCKSTKSLLNSDGFTYLDWYLQKPGQSPQLLIYLVSNRFSGVPDRFSGSGSGTDFTLKISRVEAEDLGIYFCFQSNYLPFTFGSGTKLEIK
B2: Hu1A9-1 (antibody, V domains shown)
VH: QVQLVQSGAEVKKPGASVKVSCKASGYSFTDYIMLWVRQAPGQRLEWIGDIYPYYGSTSYNLKFKGKATLTVDTSASTAYMELSSLRSEDTAVYYCARQGGDGNYVLFDYWGQGTLVTVSS
VL: DIQMTQSPSSLSASVGDRVTITCKASQNVGTTVAWYQQKPGKAPKALIYSASYRYSGVPSRFSGSGSGTDFTLTISSLQPEDFATYYCQQYNSYPFTFGQGTKLEIKR
B3: Hu1A9-2 (antibody, V domains shown)
VH: B2 VH
VL: B2 VL with A46V
B4: Mouse CT.RV 3D11E3 1A9 (antibody, V domains shown)
VH: EIQLQQTGPELVKPGASVKISCKASGYSFTDYIMLWVKQSHGKSLEWIGDIYPYYGSTSYNLKFKGKATLTVDKSSSTAYMQLNSLTSEDSAVYYCARQGGDGNYVLFDYWGQGTTLTVSS
VL: DIVMTQSQKFMSTSVGDRVSVTCKASQNVGTTVAWYQQKPGQSPKALIYSASYRYSGVPDRFTGSGSGTDFTLTISNVQSEDLAEYFCQQYNSYPFTFGSGTKLEIK

Experiments:
Test in all cases: cell-based or functional assay
[1] = target: Street rabies virus Ferret Badger, ZJ-LA, Zhejiang (rabies virus)
[2] = target: Street rabies virus Dog, GN07, Guangdong (rabies virus)
[3] = target: CVS-11 rabies virus (rabies virus) (UniProt O92284)
[4] = target: Street rabies virus Deer, DRV, Jilin (rabies virus)
[5] = target: Street rabies virus Dog, ZJ-HZ09, Zhejiang (rabies virus)
[6] = target: Street rabies virus Human, HN35, Hunan (rabies virus)
[7] = target: Street rabies virus Ferret Badger, JX09-27, Jiangxi (rabies virus)
[8] = target: Street rabies virus Dog, BD06, Hebei (rabies virus)
[9] = target: Street rabies virus Human, YN1, Yunnan (rabies virus)
[10] = target: Street rabies virus Dog, SC-CD09, Sichuan (rabies virus)
[11] = target: Street rabies virus Ferret Badger, JX08-45, Jiangxi (rabies virus)

UniProt O92284, sequence (O92284 20-524): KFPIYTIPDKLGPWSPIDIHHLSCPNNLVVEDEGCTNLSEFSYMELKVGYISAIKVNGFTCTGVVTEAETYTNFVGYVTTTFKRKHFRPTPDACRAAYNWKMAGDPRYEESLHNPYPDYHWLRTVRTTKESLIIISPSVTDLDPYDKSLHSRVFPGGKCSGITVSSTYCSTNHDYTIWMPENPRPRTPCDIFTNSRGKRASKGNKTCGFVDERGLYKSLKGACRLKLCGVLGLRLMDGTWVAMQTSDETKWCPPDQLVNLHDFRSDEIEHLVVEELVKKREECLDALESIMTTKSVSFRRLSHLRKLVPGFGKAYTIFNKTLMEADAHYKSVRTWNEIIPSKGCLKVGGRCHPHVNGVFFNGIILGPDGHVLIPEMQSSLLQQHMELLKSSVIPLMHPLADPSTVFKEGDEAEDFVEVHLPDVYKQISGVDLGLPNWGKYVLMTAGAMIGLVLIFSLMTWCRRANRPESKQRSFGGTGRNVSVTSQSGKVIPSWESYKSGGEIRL

| Binder | mouse neutralization test (MNT): survivors of 8 mice at day 20 (of 8 surviving) [1] | mouse neutralization test (MNT): survivors of 8 mice at day 20 (of 8 surviving) [2] | Neutralization potency (IU/mg), FAVN [3] | Neutralization potency (IU/mg), RFFIT [3] | Neutralizing Potency (IU/mg), RFFIT [3] | mouse neutralization test (MNT): survivors of 8 mice at day 20 (of 8 surviving) [4] | mouse neutralization test (MNT): survivors of 8 mice at day 20 (of 8 surviving) [5] | mouse neutralization test (MNT): survivors of 8 mice at day 20 (of 8 surviving) [6] | mouse neutralization test (MNT): survivors of 8 mice at day 20 (of 8 surviving) [7] | mouse neutralization test (MNT): survivors of 8 mice at day 20 (of 8 surviving) [8] | mouse neutralization test (MNT): survivors of 8 mice at day 20 (of 8 surviving) [9] | mouse neutralization test (MNT): survivors of 8 mice at day 20 (of 8 surviving) [10] | mouse neutralization test (MNT): survivors of 8 mice at day 20 (of 8 surviving) [11] | mouse neutralization test (MNT): survival rate at 0.004 mg/mL antibody [3] |
| --- | --- | --- | --- | --- | --- | --- | --- | --- | --- | --- | --- | --- | --- | --- |
| B1 | 8 | 7 | 8310 IU/mg | 1670 IU/mg | 701 IU/mg | 8 | 7 | 8 | 8 | 6 | 7 | 8 | 8 |  |
| B2 |  |  | 2100 IU/mg | 2290 IU/mg |  |  |  |  |  |  |  |  |  | 100% |
| B3 |  |  | 405 IU/mg | 1310 IU/mg |  |  |  |  |  |  |  |  |  |  |
| B4 | 7 | 7 | 308 IU/mg | 1260 IU/mg | 3680 IU/mg | 7 | 6 | 8 | 8 | 4 | 7 | 8 | 8 | 50% |
